According to the supplement of paper PMC10567573:

B1: FCHO1 (parent)
chain: FTSSPSPFSSSSPENVEDSGLDSP

Variants of: B1
Test: protein stability index of a GFP-peptide fusion (GPS, HEK-293T) (PSI 1-6); higher = more stable
Details: c terminus: a fixed tail appended
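Note: lentivirally expressed fusions sorted by FACS into six bins by GFP to DsRed ratio, PSI derived from sequencing read proportions per bin multiplied by bin number.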

Protein stability index, by site and new letter:
P24: A 1.38 | G 1.77 | D 1.85 | Q 2.32 | I 1.96 | E 1.84 | H 2.42 | K 1.96 | L 1.98 | N 1.81 | F 1.89 | C 2.99 | M 2.24
D22: T 2.18 | M 1.48 | W 2.62 | Y 2.42 | E 2.6 | S 1.78 | N 2.96 | A 2 | F 1.31 | P 2.23 | K 1.74 | H 2.29 | I 2.11 | L 2.14 | V 2.43 | G 1.86 | Q 1.83 | C 2.47 | R 2.04
E17: D 1.84 | G 1.96 | M 2.32 | A 1.5 | S 2.53 | V 1.3 | Q 1.85 | F 2.21 | K 1.78 | T 2.26 | H 1.98 | C 1.68 | R 1.86 | W 1.65 | L 1.88 | N 2.1 | Y 2.23 | P 1.8 | I 1.67
S23: Y 1.37 | T 1.8 | L 2.6 | F 2.18 | C 1.68 | Q 2.66 | K 2.17 | W 2.12 | R 1.79 | M 1.68 | V 1.56 | P 2.27 | A 2.06 | H 2.44 | N 1.78 | E 1.88 | G 1.81 | I 1.91 | D 2.18
S19: N 2.06 | D 1.9 | R 2.39 | A 2.04 | C 2.22 | P 2.26 | E 1.81 | V 2 | T 2.34 | Q 2.21 | I 2.27 | H 2.46 | K 1.95 | G 1.64 | Y 2.78 | W 1.57 | L 2.32 | M 1.5 | F 2.24
D18: I 2.01 | V 1.73 | S 1.82 | Q 1.93 | E 1.92 | M 1.99 | F 2.26 | P 2.01 | H 2.7 | N 2.42 | T 2.03 | Y 2.27 | L 2.05 | R 1.6 | W 1.92 | C 2.17 | K 1.91 | A 1.62 | G 1.83
L21: P 2.14 | R 2.21 | Y 2.19 | G 2.12 | E 1.95 | S 1.81 | F 2.07 | H 2.27 | N 2.28 | I 2.87 | T 2.52 | D 2.06 | M 2.84 | V 2.01 | Q 2.03 | C 2.23 | A 1.49 | W 1.7 | K 2.02
G20: S 2.09 | Y 2.33 | N 1.98 | F 2.32 | A 1.88 | I 1.97 | C 2.31 | Q 1.99 | D 1.88 | E 2.04 | M 2.07 | V 1.64 | R 1.91 | W 1.56 | K 2.87 | P 1.86 | H 2.43 | L 2.07 | T 3.02
V16: W 2.16 | T 2.52 | M 1.68 | L 1.7 | G 2.75 | D 2.39 | C 2.44 | H 2.27 | A 2.47 | R 2.08 | Q 1.91 | F 1.75 | S 2.15 | Y 2.03 | E 1.81 | K 1.9 | P 1.6 | N 1.86 | I 2.25
N15: W 2.39 | Y 1.6
